Experiment: two-colour ID-FRAP, CHO-K1 large ER inclusions
Conditions: glycan lost; control: YFP-Z coexpressed with HaloTag-CRT

## Z-α1-antitrypsin: YFP-ZN46A,N83A,N247A (GlycMut)
  other: calreticulin-driven immobilisation in ER inclusions, other: % cells with immobile YFP-Z: abolishes
